In patent US20190024073:

Legend:
Assay in all cases: cell_activity
[1] = test system: zebrafish nd4 reverse mitoTALE-nickase-1 (synthetic (Xanthomonas TALE-FokI)?); details: nd4 nickase-1 + nickase-2, zebrafish embryos
[2] = test system: zebrafish nd4 reverse mitoTALE-nickase-2 (synthetic (Xanthomonas TALE-FokI)?); details: nd4 nickase-1 + nickase-2, zebrafish embryos
[3] = test system: zebrafish nd5 forward mitoTALE-nickase (synthetic (Xanthomonas TALE-FokI)?); details: nd5+atp8 nickases, >90% with nd4 nuclease
[4] = test system: zebrafish nd4 reverse mitoTALE nuclease (synthetic (Xanthomonas TALE-FokI)?); details: co-injected with nd5 and atp8 nickases; heteroplasmic shift to about 2-10%
[5] = test system: zebrafish nd4 forward mitoTALE-nickase-2 (synthetic (Xanthomonas TALE-FokI)?); details: nd4 nickase-1 + nickase-2, zebrafish embryos
[6] = test system: zebrafish nd5 reverse mitoTALE-nickase (synthetic (Xanthomonas TALE-FokI)?); details: nd5+atp8 nickases, >90% with nd4 nuclease
[7] = test system: zebrafish atp8 reverse mitoTALE-nickase (synthetic (Xanthomonas TALE-FokI)?); details: nd5+atp8 nickases, >90% with nd4 nuclease
[8] = test system: zebrafish nd4 forward mitoTALE nuclease (synthetic (Xanthomonas TALE-FokI)?); details: co-injected with nd5 and atp8 nickases; heteroplasmic shift to about 2-10%
[9] = test system: zebrafish atp8 forward mitoTALE-nickase (synthetic (Xanthomonas TALE-FokI)?); details: nd5+atp8 nickases, >90% with nd4 nuclease
[10] = test system: zebrafish nd4 forward mitoTALE-nickase-1 (synthetic (Xanthomonas TALE-FokI)?); details: nd4 nickase-1 + nickase-2, zebrafish embryos

AAGTTCTGGTTTTAA (double strand) [zebrafish nd4 nickase-1 reverse half-site]
activity (% embryos with deletion) [1]: 50

ACGAGTTAGAAGCAT (double strand) [zebrafish nd4 nickase-2 reverse half-site]
activity (% embryos with deletion) [2]: 50

AGGGCTAATGATAGT (double strand) [zebrafish nd5 forward half-site]
activity (% embryos with deletion) [3]: 30

CGGGTAATAATGATT (double strand) [zebrafish nd4 nuclease reverse half-site]
activity (% embryos with deletion) [4]: > 90

GACTAAAATGAACCT (double strand) [zebrafish nd4 nickase-2 forward half-site]
activity (% embryos with deletion) [5]: 50

GCTAGATGTGGTTGG (double strand) [zebrafish nd5 reverse half-site]
activity (% embryos with deletion) [6]: 30

TAGGTTGAATGTGAT (double strand) [zebrafish atp8 reverse half-site]
activity (% embryos with deletion) [7]: 30

TATATTCGAAGCTAC (double strand) [zebrafish nd4 nuclease forward half-site]
activity (% embryos with deletion) [8]: > 90

TCCTTACTATTATTC (double strand) [zebrafish atp8 forward half-site]
activity (% embryos with deletion) [9]: 30

TTACACCTAATTCCT (double strand) [zebrafish nd4 nickase-1 forward half-site]
activity (% embryos with deletion) [10]: 50
